Results on 125 sequences are retold here after the supplement of paper PMC9112550, “Optimization of the antimicrobial peptide Bac7 by deep mutational scanning” (BMC Biology, 2022).

The data set concerns Escherichia coli TOP10. The experiment in a line: shrunken log2 fold change of peptide-encoding DNA abundance (4.5 h post-induction vs induction); higher = less antimicrobial activity (less host growth inhibition). Particulars: time post-induction: 4.5 h; library: site-saturation at positions 5, 18, 19, 20.
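Further: peptides expressed intracellularly from a pBAD plasmid library in pooled LB shake-flask culture, induced with 0.3% L-arabinose, DNA abundance read by NGS, three biological replicates, DESeq2 with apeglm shrinkage.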

RRIRQRPPRLPRPRPRPSACPRP: the “shrunken log2 fold change” value came to 0.42. In the case of RRIRMRPPRLPRPRPRPTEDPRP it was 1.9. With RRIRKRPPRLPRPRPRPPKTPRP, the “shrunken log2 fold change” value is 0.0147.

For RRIRGRPPRLPRPRPRPSARPRP, the “shrunken log2 fold change” value is 1.1. For the sequence RRIRERPPRLPRPRPRPLIFPRP, the “shrunken log2 fold change” value is -0.406. In the case of RRIRHRPPRLPRPRPRPYYRPRP it was -0.0075.

Regarding RRIRSRPPRLPRPRPRPVTEPRP, the “shrunken log2 fold change” value was -0.0851. In the case of RRIRTRPPRLPRPRPRPWYHPRP, the “shrunken log2 fold change” value was -0.464.

In the case of RRIRFRPPRLPRPRPRPFHYPRP, the “shrunken log2 fold change” value is 0.0611. On to RRIRTRPPRLPRPRPRPLAWPRP, for which the “shrunken log2 fold change” value amounted to 0.195. In the case of RRIRCRPPRLPRPRPRPHSTPRP it was -0.698. On to RRIRSRPPRLPRPRPRPRSAPRP, for which the “shrunken log2 fold change” value is 0.392. As to RRIRSRPPRLPRPRPRPHNKPRP, the “shrunken log2 fold change” value was -0.71. In the case of RRIRVRPPRLPRPRPRPENEPRP it was -0.0631. Under RRIRRRPPRLPRPRPRPHIRPRP stands 0.00753; under RRIRPRPPRLPRPRPRPNYMPRP, -0.737; under RRIRMRPPRLPRPRPRPPMVPRP, 0.188. In the case of RRIRARPPRLPRPRPRPAWKPRP it was 0.398; in that of RRIRWRPPRLPRPRPRPNISPRP, -0.279. As to RRIRNRPPRLPRPRPRPNNMPRP, the “shrunken log2 fold change” value was -0.278. As to RRIRKRPPRLPRPRPRPIMSPRP, the “shrunken log2 fold change” value is -0.00757.

Take RRIRERPPRLPRPRPRPLPFPRP: the “shrunken log2 fold change” value was -0.688. In the case of RRIRRRPPRLPRPRPRPLTPPRP, the “shrunken log2 fold change” value was 0.489. For the sequence RRIRSRPPRLPRPRPRPTWWPRP, the “shrunken log2 fold change” value came out at 0.422. In the case of RRIRLRPPRLPRPRPRPEDAPRP, the “shrunken log2 fold change” value turned out to be 0.368. Take RRIRHRPPRLPRPRPRPPILPRP: the “shrunken log2 fold change” value was -0.0767. In the case of RRIRVRPPRLPRPRPRPTTHPRP it was -0.0858; in that of RRIRPRPPRLPRPRPRPCEYPRP, 1.65; in that of RRIRPRPPRLPRPRPRPDDKPRP, -0.0729.

Turning to RRIRMRPPRLPRPRPRPCLKPRP, the “shrunken log2 fold change” value was 0.12. Under RRIRYRPPRLPRPRPRPGKGPRP stands -0.0232. Turning to RRIRDRPPRLPRPRPRPMHNPRP, the “shrunken log2 fold change” value was -0.696. Under RRIRHRPPRLPRPRPRPAMEPRP stands 0.0691; under RRIRDRPPRLPRPRPRPSAQPRP, 0.469; under RRIRRRPPRLPRPRPRPSTQPRP, -0.245. In the case of RRIRHRPPRLPRPRPRPPMDPRP it was -0.309. In the case of RRIRTRPPRLPRPRPRPYVYPRP it was -1.18; in that of RRIRSRPPRLPRPRPRPSWKPRP, -0.0985. In the case of RRIRERPPRLPRPRPRPAQHPRP, the “shrunken log2 fold change” value is 0.124.

For the sequence RRIRVRPPRLPRPRPRPMCEPRP, the “shrunken log2 fold change” value was 0.0553. For RRIRNRPPRLPRPRPRPFSIPRP, the “shrunken log2 fold change” value was determined as 0.000741.

As for RRIRWRPPRLPRPRPRPPEQPRP, the “shrunken log2 fold change” value was 0.153. For RRIRIRPPRLPRPRPRPYFHPRP, the “shrunken log2 fold change” value was -0.835.

RRIRLRPPRLPRPRPRPRTHPRP: the “shrunken log2 fold change” value stood at 0.189.

As to RRIRVRPPRLPRPRPRPRYHPRP, the “shrunken log2 fold change” value is -0.36. Regarding RRIRARPPRLPRPRPRPQDPPRP, the “shrunken log2 fold change” value turned out to be 0.557.

As for RRIRPRPPRLPRPRPRPTHYPRP, the “shrunken log2 fold change” value was found to be 0.206. Regarding RRIRCRPPRLPRPRPRPPNWPRP, the “shrunken log2 fold change” value was found to be 1.17. Under RRIRKRPPRLPRPRPRPYCDPRP stands 0.00748.

With RRIRVRPPRLPRPRPRPYPIPRP, the “shrunken log2 fold change” value was -0.0204.

For the sequence RRIRVRPPRLPRPRPRPWPCPRP, the “shrunken log2 fold change” value was -0.22. On to RRIRGRPPRLPRPRPRPSNAPRP, for which the “shrunken log2 fold change” value amounted to 0.216. As to RRIRMRPPRLPRPRPRPQRNPRP, the “shrunken log2 fold change” value was found to be 0.209. Under RRIRQRPPRLPRPRPRPPTKPRP stands 0.209; under RRIRIRPPRLPRPRPRPFRWPRP, -0.00968; under RRIRIRPPRLPRPRPRPLYRPRP, -0.384. In the case of RRIRPRPPRLPRPRPRPIPEPRP it was 1.27. In the case of RRIRKRPPRLPRPRPRPERLPRP it was 0.209. In the case of RRIRLRPPRLPRPRPRPQNSPRP, the “shrunken log2 fold change” value is -0.767. Under RRIRYRPPRLPRPRPRPEPHPRP stands -0.0423; under RRIRIRPPRLPRPRPRPWVEPRP, -0.211; under RRIRCRPPRLPRPRPRPDNLPRP, -0.595. In the case of RRIRWRPPRLPRPRPRPGRKPRP, the “shrunken log2 fold change” value was -0.0532.

For the sequence RRIRIRPPRLPRPRPRPAMIPRP, the “shrunken log2 fold change” value was 0.0156. In the case of RRIRNRPPRLPRPRPRPLYEPRP it was -0.675; in that of RRIRARPPRLPRPRPRPLKNPRP, -0.127; in that of RRIRSRPPRLPRPRPRPRIPPRP, -0.179. In the case of RRIRMRPPRLPRPRPRPCRSPRP, the “shrunken log2 fold change” value came out at 0.0369.

With RRIRYRPPRLPRPRPRPRYWPRP, the “shrunken log2 fold change” value is -0.317. Turning to RRIRKRPPRLPRPRPRPAHFPRP, the “shrunken log2 fold change” value was 0.232. Regarding RRIRHRPPRLPRPRPRPVRHPRP, the “shrunken log2 fold change” value came to 0.251. As for RRIRVRPPRLPRPRPRPKDFPRP, the “shrunken log2 fold change” value stood at 0.123. Under RRIRSRPPRLPRPRPRPGMDPRP stands 0.0734; under RRIRTRPPRLPRPRPRPSSKPRP, -0.201; under RRIRVRPPRLPRPRPRPMGWPRP, 0.202. RRIRRRPPRLPRPRPRPCGCPRP: the “shrunken log2 fold change” value was found to be 0.0953. In the case of RRIRWRPPRLPRPRPRPLCKPRP it was 0.116.

As for RRIRPRPPRLPRPRPRPSTRPRP, the “shrunken log2 fold change” value is -0.0318.

Turning to RRIRCRPPRLPRPRPRPVIIPRP, the “shrunken log2 fold change” value was -1.28. In the case of RRIRNRPPRLPRPRPRPGSMPRP it was -0.225; in that of RRIRDRPPRLPRPRPRPIGHPRP, 0.012. Consider RRIRERPPRLPRPRPRPATQPRP, for which the “shrunken log2 fold change” value is 0.00813. Regarding RRIRRRPPRLPRPRPRPAVPPRP, the “shrunken log2 fold change” value turned out to be 0.146. RRIRYRPPRLPRPRPRPSEMPRP: the “shrunken log2 fold change” value was -0.765. With RRIRLRPPRLPRPRPRPTAQPRP, the “shrunken log2 fold change” value turned out to be 0.104. As for RRIRFRPPRLPRPRPRPKTYPRP, the “shrunken log2 fold change” value was -0.578. In the case of RRIRWRPPRLPRPRPRPAMSPRP, the “shrunken log2 fold change” value amounted to 0.403. As for RRIRFRPPRLPRPRPRPKFGPRP, the “shrunken log2 fold change” value worked out at 0.039. Consider RRIRDRPPRLPRPRPRPYMPPRP, for which the “shrunken log2 fold change” value is -0.517.

In the case of RRIRWRPPRLPRPRPRPRLWPRP, the “shrunken log2 fold change” value was determined as 0.414.

RRIRYRPPRLPRPRPRPMTLPRP: the “shrunken log2 fold change” value is -0.0394. Consider RRIRKRPPRLPRPRPRPWSPPRP, for which the “shrunken log2 fold change” value is 0.0668. Under RRIRFRPPRLPRPRPRPVDIPRP stands -0.338; under RRIRNRPPRLPRPRPRPYKYPRP, -0.369; under RRIRFRPPRLPRPRPRPRPQPRP, 0.684. In the case of RRIRPRPPRLPRPRPRPNWQPRP it was 0.131; in that of RRIRKRPPRLPRPRPRPTEGPRP, 0.869; in that of RRIRVRPPRLPRPRPRPWCTPRP, 0.0234.

Consider RRIRHRPPRLPRPRPRPLCYPRP, for which the “shrunken log2 fold change” value is -0.737.

As to RRIRPRPPRLPRPRPRPFRPPRP, the “shrunken log2 fold change” value was -0.0197.

Take RRIRMRPPRLPRPRPRPCMIPRP: the “shrunken log2 fold change” value is -0.0212. Take RRIRDRPPRLPRPRPRPYFMPRP: the “shrunken log2 fold change” value was -0.735.

As to RRIRTRPPRLPRPRPRPNLRPRP, the “shrunken log2 fold change” value was -0.184. Under RRIRWRPPRLPRPRPRPSKQPRP stands 0.143. With RRIRKRPPRLPRPRPRPQPEPRP, the “shrunken log2 fold change” value came out at 0.7. In the case of RRIRYRPPRLPRPRPRPQYLPRP it was -3.15. Under RRIRGRPPRLPRPRPRPLGEPRP stands 1.08. Turning to RRIRLRPPRLPRPRPRPPTPPRP, the “shrunken log2 fold change” value came to 0.617. As for RRIRKRPPRLPRPRPRPIPKPRP, the “shrunken log2 fold change” value turned out to be 0.499. Under RRIRSRPPRLPRPRPRPVHTPRP stands 0.0158. In the case of RRIRTRPPRLPRPRPRPIRNPRP, the “shrunken log2 fold change” value is -0.324. Consider RRIRSRPPRLPRPRPRPPATPRP, for which the “shrunken log2 fold change” value came to 0.725. On to RRIRFRPPRLPRPRPRPFPIPRP, for which the “shrunken log2 fold change” value was -0.184. With RRIRQRPPRLPRPRPRPVYYPRP, the “shrunken log2 fold change” value is 0.0771. On to RRIRQRPPRLPRPRPRPRADPRP, for which the “shrunken log2 fold change” value came out at 0.156. In the case of RRIRRRPPRLPRPRPRPTLTPRP it was 0.466; in that of RRIRNRPPRLPRPRPRPDPEPRP, 0.211.

In the case of RRIRIRPPRLPRPRPRPCWMPRP, the “shrunken log2 fold change” value was -0.222. RRIRPRPPRLPRPRPRPTKCPRP: the “shrunken log2 fold change” value is -0.0849.

Take RRIRGRPPRLPRPRPRPDSRPRP: the “shrunken log2 fold change” value worked out at 0.122. Under RRIRMRPPRLPRPRPRPCLCPRP stands -0.0635. RRIRHRPPRLPRPRPRPQCMPRP: the “shrunken log2 fold change” value is -0.123.

In the case of RRIRLRPPRLPRPRPRPTHIPRP, the “shrunken log2 fold change” value is -0.148. On to RRIRWRPPRLPRPRPRPVNPPRP, for which the “shrunken log2 fold change” value turned out to be 0.0699. Under RRIRKRPPRLPRPRPRPVPHPRP stands 0.189.
